# Measurements reported in patent publication US20180094051A1, “METHOD FOR INHIBITING LYMPHANGIOGENESIS BY ADMINISTRATION OF AN INHIBITOR OF THE CXCL12 PATHWAY” (Tsinghua University, priority 2012, published 2018).
# Assays:
# [1] = test system: chemokine receptor CXCR4; assay: Flow cytometry of CXCR4 on the surface of lymphatic endothelial cells; assay type: cell-based; settings: starved mouse lymphatic endothelial cells, 100 ng/mL VEGF-C, 24 hours
# Protocol: Mouse primary lymphatic endothelial cells at passage 2 or 3 in good condition were selected and seeded into four 6 cm Petri dishes. Two groups of cells were cultured normally, while the other two groups of cells were treated by replacing the medium with a medium free of serum and growth factors when the cell density reached 80%, and starved overnight. One of the two groups was cultured for 24 hours after the medium was replaced with a serum-free culture medium containing 100 ng/mL of VEGF-C. The four groups of cells were detected for the expression level of chemokine receptor CXCR4 on the cell surface by flow cytometry. The group of cells cultured normally was used as negative control.
# The cells were treated with 0.25% disodium EDTA (Ethylenediaminetetraacetic Acid Disodium Salt, EDTA), then washed with ice-cold PBS. The cells were suspended and centrifuged at a low speed (600 g, 3 minutes; the low-speed centrifugations in this experiment all referred to centrifugation at this speed for this time). The cells were resuspended in 1 mL of PBS containing 10% goat serum and then incubated for 15 minutes. […]
# Each group of cells were resuspended in 1 mL of PBS containing 2% goat serum, and then 1 μg of fluorescein-labeled secondary antibody was added. […] The expression of CXCR4 on cell surface was analyzed by flow cytometry (FACS Calibur Flow Cytometry System, Becton Dickinson).
# [2] = test system: chemokine receptor CXCR4; assay: Immunoblotting of CXCR4 in lymphatic endothelial cells (incl. HIF-1α RNA interference); assay type: cell-based; settings: mouse lymphatic endothelial cells, 100 ng/mL VEGF-C, 6, 12 and 24 hours
# Protocol: Mouse primary lymphatic endothelial cells at passage 2 or 3 in good condition were selected, and starved overnight by replacing the culture medium with a fresh medium free of serum and growth factors. Then the medium was replaced with a medium containing 100 ng/mL of VEGF-C. The cells were incubated for 6, 12 and 24 hours, respectively, and then trypsinized and collected by centrifugation for detecting the expression level of chemokine receptor CXCR4 in the cells by immunoblotting.
# The samples were subjected to SDS-PAGE (the concentration of separation gel was 15%). Protein bands were transferred to polyvinylidene difluoride (PVDF) membrane (purchased from Millipore) at 100 mA for 3 hours using an electroblotting device in ice bath. TBST buffer (20 mM Tris, pH7.4, 150 mM NaCl, 0.1% Tween-20) was formulated for preparing blocking solution, primary antibody solution and secondary antibody solution. The PVDF membrane was further incubated in blocking solution containing 5% skim milk for 1 hour at room temperature with gentle shaking. The membrane was then washed with TBST for 5 times, 5 minutes each. […]
# The siRNA for interfering with the chemical synthesis of HIF-1α was purchased from Santa Cruz Biotechnology, and the negative control siRNA was purchased from GenePharma, Shanghai. […] HIF-1α knock-down efficiency was detected by immunoblotting. […]
molecule,measurement,setting,value
"VEGF-C: Vascular Endothelial Growth Factor C, the major pro-lymphangiogenesis factor; purchased from R&D Systems (protein, UniProt P49767 112-227, looked up) Vascular endothelial growth …: AHYNTEILKSIDNEWRKTQCMPREVCIDVGKEFGVATNTFFKPPCVSVYRCGGCCNSEGLQCMNTSTSYLSKTLFEITVPLSQGPKPVTISFANHTSCRCMSKLDVYRQVHSIIRR",cell surface CXCR4 protein level,[1],could indeed upregulate the expression level of chemokine receptor CXCR4
same,expression level of CXCR4,[2],could up-regulate the expression of CXCR4 and HIF-1α
